Laboratory results as given in patent US20240228562A1, “NOVEL LIPOCALIN MUTEINS SPECIFIC FOR CONNECTIVE TISSUE GROWTH FACTOR (CTGF)” (PIERIS PHARMACEUTICALS GMBH, priority 2021, published 2024).

Key:
Murine CTGF = biological target: T1, Murine CTGF (Mus musculus, UniProt P29268); experiment: SPR binding kinetics and affinity, murine CTGF; set-up: key to Murine CTGF kon / Murine CTGF koff / Murine CTGF KD: B binding without determination of kinetics constants; settings: 25° C., 1:1 binding model
T1 construct: purchased Abbexa
T1 sequence (P29268 26-348): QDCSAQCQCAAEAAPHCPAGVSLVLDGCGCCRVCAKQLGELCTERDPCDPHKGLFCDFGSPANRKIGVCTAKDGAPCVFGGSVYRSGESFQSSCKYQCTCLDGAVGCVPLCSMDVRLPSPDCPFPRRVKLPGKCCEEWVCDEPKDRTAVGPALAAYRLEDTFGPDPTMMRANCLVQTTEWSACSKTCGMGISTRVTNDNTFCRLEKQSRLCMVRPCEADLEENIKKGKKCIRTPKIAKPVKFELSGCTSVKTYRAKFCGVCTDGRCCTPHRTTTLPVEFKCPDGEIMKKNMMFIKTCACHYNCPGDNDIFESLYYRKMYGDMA
In short: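 Targets either amine-coupled to CM5 chip (300–1100 RU; Fc-tagged human, untagged rat/murine) or Fc-captured via anti-human IgG; muteins injected 180 s contact, 900–3600 s dissociation, 30 μL/min, 25° C. Double-referenced sensorgrams fit to 1:1 model giving kon, koff and KD.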

[1] = biological target: T2, huCTGF domains 1 and 2 with human Fc tag (Homo sapiens, UniProt P29279); experiment: ELISA binding to CTGF fragments, human CTGF domains 1 and 2; settings: coated 1 μg/ml, muteins from 1000 nM; for EC50: read-out: EC Human CTGF1-2-huFc
T2 construct: purchased Evitria
Procedure: Binding of muteins to fragments of human and murine CTGF was tested by an ELISA assay. In detail, a 384-well plate suitable for fluorescence measurements (Greiner FLUOTRAC™ 600, black flat bottom, high-binding) was coated with 20 μl of human (R&D Systems, SEQ ID NO 79) and murine CTGF (Biozol, SEQ ID NO: 80) or fragments thereof (Evitria, huCTGF domains 1 and 2 with human Fc tag (SEQ ID NO 77) and muCTGF domains 1 and 2 with human Fc tag (SEQ ID NO 78)) at a concentration of 1 μg/ml in PBS over night at 4° C. After washing with PBS with 0.05% Tween 20, wells were blocked with 100 μl blocking buffer containing 0.1% Tween 20 and 2% BSA (PBS-T/BSA) for 1 h at room temperature. 20 μl of serially diluted muteins starting at 1000 nM were incubated in PBS-T/BSA for 1 h at room temperature.
(§1) The residual supernatants were discarded and 20 μl HRP-labeled anti-Strep-Tag antibody was added at a predetermined optimal concentration in PBS-T/BSA and incubated for 1 h at RT. After washing, 20 μl fluorogenic HRP substrate (QuantaBlu, Thermo) was added to each well, and the reaction was allowed to proceed for 5 to 25 minutes. The fluorescence intensity of every well on the plate was read using a fluorescence microplate reader (Tecan). Curve fitting was performed using GraphPad Prism 7 software.

huWISP-3 = biological target: T3, huWISP-3 (Homo sapiens, UniProt O95389); experiment: Specificity ELISA (CCN proteins), huWISP-3; assay type: binding; settings: coated 1 μg/ml; assessed when human CTGF signal approached saturation
T3 sequence (O95389 24-354): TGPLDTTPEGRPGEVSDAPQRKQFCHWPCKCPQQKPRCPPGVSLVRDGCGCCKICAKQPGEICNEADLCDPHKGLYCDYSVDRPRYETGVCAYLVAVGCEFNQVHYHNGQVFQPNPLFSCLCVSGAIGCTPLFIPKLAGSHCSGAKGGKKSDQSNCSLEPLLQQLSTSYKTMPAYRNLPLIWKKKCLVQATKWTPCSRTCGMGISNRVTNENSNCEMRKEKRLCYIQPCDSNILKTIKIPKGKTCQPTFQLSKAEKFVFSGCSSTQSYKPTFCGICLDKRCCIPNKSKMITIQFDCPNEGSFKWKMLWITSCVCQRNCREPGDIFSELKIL
Procedure: Binding of muteins to closely related proteins of CTGF was tested by an ELISA assay. In detail, a 384-well plate suitable for fluorescence measurements (Greiner FLUOTRAC™ 600, black flat bottom, high-binding) was coated with 20 μl of human CTGF or the other members of the CCN protein family at a concentration of 1 μg/ml in PBS over night at 4° C. After washing with PBS with 0.05% Tween 20, wells were blocked with 100 μl blocking buffer containing 0.1% Tween 20 and 2% BSA (PBS-T/BSA) for 1 h at room temperature. 20 μl of serially diluted muteins starting at 1000 nM were incubated in PBS-T/BSA for 1 h at room temperature (RT).
as §1, with “HRP-labeled anti-NGAL or” for “HRP-labeled”, “2” for “5”, “60” for “25”, “When the signal for human CTGF approached saturation, the cross reactivity to the other proteins” for “Curve fitting”, “assessed.” for “performed using GraphPad Prism 7 software.”

T2 sequence (P29279 with tags, fused parts or gaps): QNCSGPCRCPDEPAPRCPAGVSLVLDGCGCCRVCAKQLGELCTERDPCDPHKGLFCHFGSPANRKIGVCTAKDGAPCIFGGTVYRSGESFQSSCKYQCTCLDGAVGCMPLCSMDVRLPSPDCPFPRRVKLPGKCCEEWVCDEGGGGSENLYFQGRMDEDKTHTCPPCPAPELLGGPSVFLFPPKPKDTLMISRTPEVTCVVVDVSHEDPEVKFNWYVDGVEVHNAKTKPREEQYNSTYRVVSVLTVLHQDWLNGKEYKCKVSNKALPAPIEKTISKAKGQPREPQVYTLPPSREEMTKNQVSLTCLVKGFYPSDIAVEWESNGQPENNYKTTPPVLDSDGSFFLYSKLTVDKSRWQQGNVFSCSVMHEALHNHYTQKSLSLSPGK

Row | Molecule | Murine CTGF KD (Murine CTGF) | Murine CTGF koff (Murine CTGF) | Murine CTGF kon (Murine CTGF) | EC50 [1] [nM] | ELISA binding to huWISP-3 (huWISP-3) | EC Human CTGF1-2-huFc [1] | Kd (Murine CTGF) [nM]
1 | SEQ ID NO: 7: parent CTGF-binding hNGAL lipocalin mutein (protein, lipocalin mutein) QDSTSDLIPAPPLSKVPLQQNFQDNQFHGKWYVVGLAGNYGLRTDKRPSKMFATIYELKEDKSYDVTSVRFEQERCHYTIRTFVPGSQPGEFTTGSIKSRPGQTSSLVRVVSTNYNQHAMVFFKSVIQNREYFAITLYGRTKELTSELKENFIRFSKSLGLPENHIVFPVPIDQCIDG | B | B | B | 17 | No binding | – | –
2 | SEQ ID NO: 3: parent CTGF-binding hNGAL lipocalin mutein (protein, lipocalin mutein) QDSTSDLIPAPPLSKVPLQQNFQDNQFHGKWYVVGRAGNNRLREDKDPPKMWATIYELKEDKSYNVTHVHFMTKKCRYIIDTFVPGSQPGEFTLGAIKSGPGMTSPLVRIVSTNYNQHAMVFFKWVNQNREWFTITLYGRTKELTSELKENFIRFSKSLGLPENHIVFPVPIDQCIDG | B | B | B | – | No binding | n.b. | –
3 | SEQ ID NO: 23: optimized CTGF-binding hNGAL lipocalin mutein (protein, lipocalin mutein) QDSTSDLIPAPPLSKVPLQQNFQDNQFQGKWYVVGVAGNAILRPDKQPAKMFATIYELKEDKSYDVTSVRFEAKSCKYTIKTFVPGSQPGEFTSGQIKSAPGQTSTLVRVVSTNYNQHAMVFFKHVSQNREIFVITLYGRTKELTSELKENFIRFSKSLGLPENHIVFPVPIDQCIDG | B | B | B | – | No binding | – | –
4 | SEQ ID NO: 9: parent CTGF-binding hNGAL lipocalin mutein (protein, lipocalin mutein) QDSTSDLIPAPPLSKVPLQQNFQDNQFHGKWYVVGLAGNKILRIDKQPAKMFATIYELKEDKSYDVTSVRFEARSCSYTIKTFVPGSQPGEFTAGNIKSAPGQTSTLVRVVSTNYNQHAMVFFKHVSQNRETFVITLYGRTKELTSELKENFIRFSKSLGLPENHIVFPVPIDQCIDG | – | 0.000832 s⁻¹ | 133000 M⁻¹ s⁻¹ | 8 | No binding | – | 6.26
5 | SEQ ID NO: 15: optimized CTGF-binding hNGAL lipocalin mutein (protein, lipocalin mutein) QDSTSDLIPAPPLSKVPLQQNFQDNQFQGKWYVVGLAGNAILREDKQPAKMFATIYELKEDKSYDVTSVRFEAKSCKYTIKTFVPGSQPGEFTAGYIKSAPGQTSTLVRVVSTNYNQHAMVFFKHVTQNREIFVITLYGRTKELTSELKENFIRFSKSLGLPENHIVFPVPIDQCIDG | – | 4.51e-05 s⁻¹ | 129000 M⁻¹ s⁻¹ | – | No binding | – | –
6 | SEQ ID NO: 25: parent CTGF-binding hNGAL lipocalin mutein (protein, lipocalin mutein) QDSTSDLIPAPPLSKVPLQQNFQDNQFHGKWYVVGMAGNFRLREDKDPSKMGATIYELKEDKSYNVTQVQFDDKKCLYVIETFVPGSQPGEFTLGAIKSFPGFTSQLVRVVSTNYNQHAMVFFKKVYQNREVFWITLYGRTKELTSELKENFIRFSKSLGLPENHIVFPVPIDQCIDG | – | – | – | 8.8 | No binding | – | –

Other lines, results leading:

Row | Murine CTGF KD (Murine CTGF) | Murine CTGF koff (Murine CTGF) | Murine CTGF kon (Murine CTGF) | EC50 [1] [nM] | ELISA binding to huWISP-3 (huWISP-3) | EC Human CTGF1-2-huFc [1] | Kd (Murine CTGF) [nM] | Molecule
7 | – | – | – | 8.4 | No binding | – | – | SEQ ID NO: 29: parent CTGF-binding hNGAL lipocalin mutein (protein, lipocalin mutein) QDSTSDLIPAPPLSKVPLQQNFQDNQFHGKWYVVGWAGNIKLREDKDPFKMSATIYELKEDKSYNVTEVVFEQKKCHYIIKTFVPGSQPGEFTLGDIKSPPGETSSLVRVVSTNYNQHAMVFFKKVFQNREFFWITLYGRTKELTSELKENFIRFSKSLGLPENHIVFPVPIDQCIDG
8 | – | – | – | – | No binding | – | – | SEQ ID NO: 74: fusion protein comprising two CTGF-binding lipocalin muteins (protein, fusion protein) QDSTSDLIPAPPLSKVPLQQNFQDNQFQGKWYVVGLAGNAILREDKQPAKMFATIYELKEDKSYDVTSVRFEAKSCKYTIKTFVPGSQPGEFTAGYIKSAPGQTSTLVRVVSTNYNQHAMVFFKHVTQNREIFVITLYGRTKELTSELKENFIRFSKSLGLPENHIVFPVPIDQCIDGGGGGSGGGGSGGGGSQDSTSDLIPAPPLSKVPLQQNFQDNQFQGKWYVVGWAGNVKLREDKQPQKMSATIYELKEDKSYDVTEVVFEQKKCHYIIKTFVPGSQPGEFTAGDIKSPPGYTSSLVRVVSTNYNQHAMVFFKKVSQNREFFWITLYGRTKELTSELKENFIRFSKSLGLPENHIVFPVPIDQCIDG
